The values that follow come from paper doi:10.1101/2021.01.30.428974.

Assay [1] addresses Murine polyomavirus VP1 with the putative nuclear localisation signal deleted (Murine polyomavirus) (UniProt P03090). As to the kind of experiment: co-sedimentation.
In assay [2] the target is wild-type Murine polyomavirus VP1 (Murine polyomavirus) (UniProt P03090). The experiment in a line: co-sedimentation.

Turning to VP2C-GFP, in assay [1], the stoichiometry N (GFP per ΔVP1 VLP) was 72. This substance came in with a stoichiometry N (GFP per wtVP1 VLP) in assay [2] of 59.
